Laboratory results taken from article PMC11403609, “Kinetics of Secoisolariciresinol Glucosyltransferase LuUGT74S1 and Its Mutants” (Journal of Agricultural and Food Chemistry, 2024).
Substitutions are numbered along the chain they refer to. Numbers in names are those of the source.

B1: LuUGT74S1 (Linum usitatissimum; H194S) (protein)
chain: MAGDEREKAHCLVVPAAAQGHFTPLLQFSKRLIPKRIRVTLALTRFIHSTMTVTAQSGIHIDTISDGFDHSGLILQDPEHYSQTFRRVGSETLTDLIRKQSESRHPVHCIIYDASMPWFLDVAKRFGIVGAAFLTQSCAVNAIYYHLREGTIKRPVVSDPAAGTLVIDGLPPLEVSDLPSFIWDDLHTEFLAASLRQFSNDGADWVFCNTVYQLELEAVDWLTKQWLINFRTIGPTIPSFYLDKQIPDDKDYDISIFNPQNQTCMNWLQSKPDGSVVYVSFGSLARLSPQQTEELYFGLKNSNHYFLWVVRESEVAKLPKEEYLSGEKGLVVSWCSQLQVLASGKVGCFVTHCGWNSTLEALSLGVPMVAMPECGDQLTNAKFIKDVWKTGVRAEADDGKGIMWGMIKREVIERCIREVMEGEETRRNADKWGKIIKEAVVEGGSSDKNTEDFATSLINFAETFQFSC
notes: N-terminal GST fusion (pGEX-4T-1, EcoRI/NotI), tag kept (eluted with glutathione); codon-optimised synthetic gene; E. coli BL21(DE3) pLysS
B2: LuUGT74S1 (Linum usitatissimum; Y144F) (protein)
chain: B1 chain with Y144F, S194H
notes: as for B1
B3: LuUGT74S1 (Linum usitatissimum; Q136E) (protein)
chain: B1 chain with Q136E, S194H
notes: as for B1
B4: LuUGT74S1 (Linum usitatissimum; S115F) (protein)
chain: B1 chain with S115F, S194H
notes: as for B1
B5: LuUGT74S1 (Linum usitatissimum; A17S) (protein)
chain: B1 chain with A17S, S194H
notes: as for B1
B6: LuUGT74S1 (Linum usitatissimum; Q136S) (protein)
chain: B1 chain with Q136S, S194H
notes: as for B1
B7: LuUGT74S1 (Linum usitatissimum; Q136F) (protein)
chain: B1 chain with Q136F, S194H
notes: as for B1
B8: LuUGT74S1 (Linum usitatissimum) (protein)
chain: B1 chain with S194H
notes: as for B1
B9: LuUGT74S1 (Linum usitatissimum; S115A) (protein)
chain: B1 chain with S115A, S194H
notes: as for B1

Substrate: COc1cc(C[C@@H](CO)[C@H](CO)Cc2ccc(O)c(OC)c2)ccc1O
Test: UDP-Glo glycosyltransferase assay (UDP release), Michaelis-Menten fit
Assay type: biochemical, Linum usitatissimum
Conditions: apparent, UDP-glucose 1.64 mM constant (general assay text says 100 μM), 50 mM phosphate pH 8, 30 °C, 30 min, total of mono- and diglucosylation
From the text: UDP-Glo glycosyltransferase assay (UDP release), Michaelis-Menten fit on LuUGT74S1

Protein | Km | Vmax | kcat | kcat/Km
B1 | 122 ± 12 µM | 0.384 µmol/min/mg | 0.34 ± 0.06 s⁻¹ | 3000 M⁻¹ s⁻¹
B2 | 72 ± 1 µM | 0.9 µmol/min/mg | 0.75 ± 0.02 s⁻¹ | 10000 M⁻¹ s⁻¹
B3 | 69 ± 2 µM | 0.858 µmol/min/mg | 0.75 ± 0.02 s⁻¹ | 11000 M⁻¹ s⁻¹
B4 | 75 ± 1 µM | 0.834 µmol/min/mg | 0.77 ± 0.02 s⁻¹ | 10000 M⁻¹ s⁻¹
B5 | 68 ± 1 µM | 0.75 µmol/min/mg | 0.56 ± 0.45 s⁻¹ | 8000 M⁻¹ s⁻¹
B6 | 75 ± 1 µM | 1.02 µmol/min/mg | 0.92 ± 0.71 s⁻¹ | 12000 M⁻¹ s⁻¹
B7 | 165 ± 9 µM | 0.324 µmol/min/mg | 0.29 ± 0.04 s⁻¹ | 2000 M⁻¹ s⁻¹
B8 | 74 ± 1 µM | 0.948 µmol/min/mg | 0.8 ± 0.01 s⁻¹ | 11000 M⁻¹ s⁻¹
B9 | 70 ± 2 µM | 0.894 µmol/min/mg | 0.76 ± 0.08 s⁻¹ | 11000 M⁻¹ s⁻¹
